Data on 17 sequences can be found in the DeepSol protein solubility set.

This data set is described as follows: soluble on expression in E. coli; label from the status in PepcDB or PDB records.
Take “SNASGQQVHRLLGNKLELASTGQTIYHQDINLNNHPWIGDHRVYDTPVIPGVSYIAMTLAAVGVPAAVEDINFQQPLFLAESNTTRETQLMLHTADNVGKQFVEVFSRDGAKQEEWQQHASMSVSENPPPPPTLSVDIPALCEQLRPLDTDTLTEIYASISLVYGPMLQAVRQAWIGEETSLLEIEVPKALAFQLAGEPIHPVLIDACTRLTPDLFDFSSDSGVFWAPWRVKEMTLSHPTPSRFYAYVEEPSRVNEQLQTRSYDIQLLDETGQAFGRINGFTVKRAPSQLFLK”: the “soluble on expression in E. coli” value is listed as “soluble”.

Consider “MTIFRPGLLTTIQDLGRTGYLKYGVIVSGPMDEYAHRMANLLVGNDEKAALLEMTFIGPTIQFTSDQLIAMTGGDLSPTIDGHSVPMYRPVFVKKGAVLSFGRCKTGCRSYLAIGGGIDVPKVMNSRSTYLRAKIGGFQGRALVEGDELICGAPPEQTERLVKTCQKGIVHSFATTKWSVVSSQRSRDGAEKVVRVTVGSHYEQFSEASQHKFFSETFQVTSKSDRMGYRLKGPTLERLEEQELISEPISVGTIQVPADGNPIILMADRQTTGGYPRIAHVIAVDLPIIAQAKPGAAIRFQQASLKEAERLYIRRAREFNELKTSIYLQTRLEHHHHHH”, for which the “soluble on expression in E. coli” value is “not soluble”. The value for “MAHIIRRVSIKDVENFISMLAKIYDESPYMFYTPGEYDPSVTSASKQLEEYITSPHKVIFVAESDEQLVGFAFVNTTPFQRIKHVAKIDLGVKKLYQHRGIGQALLDAIMAWCLNNQIHRIEANVPLNNQPALELFKSADFQIEGVLKDKLFIDGKYYDDYMMAKILN” was “soluble”. In the case of “MSLLFNTEDLKAIFQEVSLNPSDRLVCNNSNTIYLWQDNILRVQSDHETQYRSYNVELPFVPEQMVISPSGGLVAFHANSELYVMEVNEQSRLRKHFNTSLGIKKLLWHPLATYGLSFVILHDDSTIRIYDLEDLEPESITVFNRKSRSFGLSDHVESVCDIAFDPTGLTLYLLSSFNYCDIYAIHPCLPKNFSLRSNDTSNVTSRTKNGSLADYMLHKSLSLYNSLDKQLKLISGSDPDVESDYLTLKHDLLKQIQFFDNYKKNDGIDTFTSKAIRNSVPQGPFIIKKFPTALNAKEVTGLTIIPVGERLGLLNLQFIDGTNVVLFSDSEIVMSWSLRSNTTFNNLSVITMFNAKGQCQLLNSSEPKLVFTGDSSTTIMEMPWLEPLAQCIRLHDFSIIDDVKFENKIRTVSGTFLGVLSTLSGDILYNGNSFKVIESNDKSTTQKPINRTDEVKYTYKPSLPTSGKELDMLLTKYKTEANGFISGIPDSLAPLPLKNEGHHHHHH”, the “soluble on expression in E. coli” value is listed as “soluble”. Take “MAHHHHHHEAVVTPWSVEGDVNYDKLIKDFGSHAIDEALLERIERVLGKKPHHFLRRGIFFSHRDLNLLLDVYESGQPFYLYTGRGPSSESMHMGHLIPFMFTKWLQDSFRVPLVIQMTDDEKFYFRNIPMEQVEAMTTENIKDIIAMGFDPELTFIFRDFDYMGCMYRTVAKIERAFTASQVRGCFGFAMEDNCGRWMFPAIQAAPSFSAAFPHIFPPSMGNVFCLIPQAIDQDPYFRLTRDIAPRLGYLKPAVIHSKFFPGLSGPKGKMSSSSGTAVLLTDTEKMVKDKINKHAFSGGGATKQEHFLLGANVEVDVPIQWLSFFLEDDEELARVKKEYMLGRIMTGEVKKLLINTITAITKTHQEKRKLVTDEDVQLFTSTRIMGPAKKAATQ”: the “soluble on expression in E. coli” value is reported as “soluble”. “MYLMSSIPPLIDLLPHDTPLALVDELIEVNDLSVHCQVTIGENNVFFDHETKTVPAWVGIEFMAQSIAGWSGYHAWKKGNKSPIGFLLGSRKYQAECSEFQQGDTLDIFAEQVLENNGMAVFSCYIEHKGQQLASSQLNVFVPTEEKLEELLTPKQLEHHHHHH”: the “soluble on expression in E. coli” value was “soluble”. The value for “MQTKLSTWTPLNHQLSNAHVFEERRNLLGKWFEKWTDSQRKQVLQDFFSRCSAGQLKHLRQTLSSWVPEETLDFTTVLPRVISLYIFSYLDPRSLCRCAQVSWHWKNLAELDQLWMPKCLKLGWCITFTPTPFEQGVWKRQYIETVQELHISRPKVPVKEEFIVPDVKVIGSETEGSLPLTGHRDLLGLQGRSKNGNDLGKSAKGLPPWRDSDRHPTDTIRFNYLDNLHPGEHARKALLKTRQEDTIKAPSHSTYKLRKAKSLMFLSLDLSTAGKPSHNRPKWAARNLEALPADKDSIKRISQTSQWNAGIRPGPVRPPVPRLSKEGFRASQRSHRSPPTVTLFEGQP” was “soluble”; that for “MGSSHHHHHHSSGLVPRGGSHMSAASSIFDFEVLDADHKPYNLVQHKGSPLLIYNVASKCGYTKGGYETATTLYNKYKSQGFTVLAFPCNQFGGQEPGNEEEIKEFVCTKFKAEFPIMAKINVNGENAHPLYEYMKKTKPGILKTKAIKWNFTSFLIDRDGVPVERFSPGASVKDIEKKLIPLLESTQSA” was “soluble”.

“MKRREVLQAGMALGGLAGLGRALAQGGFTLTLVHTNDTHAHLEPVELTLSGEKTPVGGVARRVALFDRVWARAKNPLFLDAGDVFQGTLYFNQYRGLADRYFMHRLRYRAMALGNHEFDLGPGPLADFLKGARFKVVSANVDASREPRLKGLFAPYAVVVVGGERVGIIGLTTPDTREISNPGPTVAFLDPYESAQKAVYELLAKGVNKIVVLSHLGYGEDLKLARRLVGVQVIVGGHSHTLLGSFPHKELSPAGPYPTVVKNPEGKDVLVVQAWEWGKVVGLLEVTFDAKGELLAYKGEALLMTPEAAPEDFFAKEALLAYAQPVMALMQQVIAEAKVDLVGERAVVRRRESNLGNLITDGMLWKTRNAGTQIALQNGGGIRASIPKGPITVGKVYEVLPFGNTLVVMDLKGKEILAALENGVSQWENTAGRFLQVSGLRYAFDLSRPAGSRVVRVEVKTEKGYVPLDLEATYRVVVNNFIANGGDGFTVLKEAQGYRVDTGFSDAESFMDYLKELKVVEAGLEGRIEVLNEPKGERPAYFAYRVPGLVGV”: the “soluble on expression in E. coli” value is on record as “soluble”. With “MSLRDLLLIDHPLCQAVFSRQGAQLLHFQPQGERPLLWCAGEWPALSSAPVRGGIPVCWPWFGSHPNGSEWPQQGWARQREWRLLDAYADESKVVVSWQLDLEDWHVRLDARLGQRLELELCSYHEEDDDCLFSFALQPYWRVGALSRVVVHGMELESARGQRGASRIPGTWIPRGAVKQVLYHPGSLVLEDGGWNRRLRIDKNVSAGSVIWHPGSRPVEQVEPGEAERFLCIGAAGYRPGGLILAPGERMRLSLAAGLQEGHHHHHH”, the “soluble on expression in E. coli” value is reported as “not soluble”. The value for “GVKLQQSGPEVVKPGASVKISCKASGYSFTNFYIHWVKQRPGQGLEWIGWIFHGSDNTEYNEKFKDKATLTADTSSSTAYMQLSSLTSEDSAVYFCARWGPHWYFDVWGQGTTVTVSSAKTTPPSVYPLAPGNSMVTLGCLVKGYFPEPVTVTWNSGSLSSGVHTFPAVLQSDLYTLSSSVTVPSSTWPSETVTCNVAHPASSTKVDKKIAAAG” was “soluble”; that for AFTCHCRRSCYSTEYSYGTCTVMGINHRFCCL was “soluble”; that for “MSLKVYITYGTADFLKTIVQKHPSENILLMQGQENAILIHETNGDTVFQAPHAYEVIDQVGEIKHPGFAVLNNIAVTQEGRPLFENRFKNRAGKVENEPGFEAIRVLRPLDSDTYVILTLWETESAFQDWQQSGSYKEAHKKRDTSAGIDTTSIFSRPSYVTTYFAVEEGGSHHHHHH” was “soluble”. The value for “MKLINTTNSHSQLVKSQLESTDATLVEVYSAGNTDVIFTQAPLHYEILISNKHRAIREPEIETIQEFFLKRKIDKASVDEANIKTLYSEKLIGISIPIK” was “not soluble”; that for “MDENALRFASYWRNSLADAESGKGCFERKDAQNFTHWHGIAAGRLDEAIVNKFFKGEKDDVETVNVILRPKVYFRLLQHGKDRSAGTPDIVTPIVTPALLSREGFLYPTPATSIPRDLLEPLPKGAFSIGEIGQYDKYKTTHTDPTHVMWTRP” was “not soluble”.

In the case of “MSLMMFRYANFQIIKKEQELVISRGIIEKHQVTIPLRKIQAIKIKENIIRQLFGFVTVSIVSAGGGDREKEEGALTILFPMIHKKKLPHMLRTFTPEYTLEENCRRLPRREGHHHHHH”, the “soluble on expression in E. coli” value is “not soluble”.

“MGSDKIHHHHHHMRNVKIDEVDRLDRDVVALGNDYAQGFILPPHQHRRAQLLYGATGLMYVTTQDGEWVVPPQHAVWIPPETVHAVRFAGVTTRSLYIEPDCVAAFIKHRRCEVISVSPLLRQLLLEAVDLPPLYDSPRDRALIQLMLLELAAMPVREFDIPLPQHPALLALCQAFLLNPSIHDPAARWARALFMSPSTFRRHFLKQLGLSFSAWRQRACVVSALAWLIAGKPVNEVALSLGYDNASSFATMFRRVTGQPPSFYHPA”: the “soluble on expression in E. coli” value is given as “not soluble”.
